Assay results as given in US20250339529A1 (MINK THERAPEUTICS, published 2025).
Changes are numbered by the printed parent chain. Names may count otherwise.

T1: BCMA-Fc antigen (UniProt Q02223 1-54)
T1 construct: Immobilized on a protein A chip
T1 sequence (looked up): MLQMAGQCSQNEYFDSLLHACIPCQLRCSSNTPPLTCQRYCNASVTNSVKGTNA

T2: BCMA antigen (UniProt Q02223 1-54, limits assumed)
T2 construct: also called wild type BCMA
T2 sequence (looked up): T1 sequence (looked up)

B1: F1G scFv CAR on iNKT cells (other)
chain: QVQLVQSGAEVKKPGASVKVSCKASGYTFTSYGISWVRQAPGQGLEWMGWISAYNGNTYYAEDLQGRLTMTTDTSTSTAYMELRSLRSDDTAVYYCAREGSYYDSSGYYLPYWGQGTLVTVSSGGGGSGGGGSGGGASQSALTQPRSVSGSPGQSVTISCTGTSSDVGAYNYVSWYQQHPGKAPKLMIYDVTERPSGVPDRFSGSKSGNTASLTISGLQAEDEADYYCSSYTSSSIAFGGGTKLTVLGQPAAATTTPAPRPPTPAPTIASQPLSLRPEACRPAAGGAVHTRGLDFACDIYIWAPLAGTCGVLLLSLVITLYCKRGRKKLLYIFKQPFMRPVQTTQEEDGCSCRFPEEEEGGCELRVKFSRSADAPAYQQGQNQLYNELNLGRREEYDVLDKRRGRDPEMGGKPRRKNPQEGLYNELQKDKMAEAYSEIGMKGERRRGKGHDGLYQGLSTATKDTYDALHMQALPPR
notes: Chimeric antigen receptor on iNKT cells with secreted IL-15; also called F1G-IL-15; F1G IL-15
B2: F6G scFv (germlined F6, parental clone of the ADD mutagenesis) (scFv)
scFv: QVQLVQSGAEVKKPGASVKVSCKASGYTFTGYYMHWVRQAPGQGLEWMGWMNPNSGNTGYAQKFQGRVTMTRNTSISTAYMELSSLRSEDTAVYYCARAQWEPLDYWGQGTLVTVSSGGGGSGGGGSGGGASSYELTQPPSVSVSPGQTARITCSGDALPKKYTYWYQQKSGQAPVLVIYEDTKRPSGIPERFSGSSSGTMATLTISGAQVEDEADYYCLSTDPTGQESVFGGGTKLTVLGQP
notes: scFv expressed in a cell free system from PCR fragments; also called parental F6G clone; germline F6G
B3: F6G scFv with E to Y substitution in position 49 of CDRL2 (scFv)
scFv: B2 scFv with E181Y
notes: Cell free expressed scFv; also called E to Y substitution in position 49 of light CDRL2

Tests used:
BCMA-Fc antigen [1] = molecular target: T1, BCMA-Fc antigen; assay: flow cytometry, lentivirally transduced iNKT cells stained with BCMA-Fc and A647 anti-human IgG Fc; Donor 1, Transduced; Non transduced control 2.00
Description: (§1) Purified and a-GalCer expanded iNKT cells from 2 donors were stimulated with TransAct (Miltenyi) and transduced with lentivirus (MOI 3) encoding for various 2nd Generation BCMA-CAR molecule and secreted IL-15. Constructs including F6G-Var2 IL-15, F6G variant 2 (no IL-15), F1G-IL-15, bb2121-IL-15, and CD19-CAR-IL-15 were tested. Cells were expanded for 10 to 12 days then transduced cells were co-cultured with K562 cells expressing BCMA at a ratio iNKT:K562 of 1:1. Cells were cultured and enriched with media supplemented with supporting cytokines IL-2 (100 IU/mL), IL-15 (100 UI/mL) and IL-21 (20 IU/mL). […]
(§2) Transduced cells pre-co-culture and enriched cells post co-culture with K562-BCMA were analyzed for CAR expression by flow cytometry (FIG. 17). iNKT cells were incubated with a LIVE/DEAD (Biolegend) reagents to separate live from dead cells and then stained for cell surface markers BCMA-CAR or CD19-CAR, BUV395 CD8 (BD, clone RPA-T8) and BUV563 CD4 (BD, clone OKT4). BCMA-CAR expression was detected with an unconjugated, primary BCMA-Fc reagent (AcroBiosystems) while CD19 CAR expression was detected with an unconjugated, primary CD19-Fc reagent (AcroBiosystems). […]

BCMA-Fc antigen [2] = molecular target: T1, BCMA-Fc antigen; assay: flow cytometry, lentivirally transduced iNKT cells stained with BCMA-Fc and A647 anti-human IgG Fc; Donor 2, Transduced; Non transduced control 0.74
Description: as §1, §2

BCMA-Fc antigen [3] = molecular target: T1, BCMA-Fc antigen; assay: flow cytometry, lentivirally transduced iNKT cells stained with BCMA-Fc and A647 anti-human IgG Fc; Donor 1, Enriched on K562-BCMA; Non transduced control 7.76
Description: as §1, §2

BCMA-Fc antigen [4] = molecular target: T1, BCMA-Fc antigen; assay: flow cytometry, lentivirally transduced iNKT cells stained with BCMA-Fc and A647 anti-human IgG Fc; Donor 2, Enriched on K562-BCMA; Non transduced control 1.34
Description: as §1, §2

BCMA antigen = molecular target: T2, BCMA antigen; assay: SPR (Biacore 4000), cell-free expressed scFv on BCMA antigen
Description: Further, a germlined version of F6 (F6G) was affinity matured by a combination of two methods: Accelerated Drug Discovery (ADD) approach and affinity maturation of by phage libraries. FIGS. 9A-9C describe the ADD approach. FIG. 9A is a schematic representation of the CDR positions undergone mutagenesis. Each amino acid in the heavy and light CDRs was substituted with 8 different amino acids; Tyr, Ser, Pro, Leu, his, Gly, Asp, Asn. Fragments containing single amino acids substitutions were generated by mutagenesis PCR. The PCR fragments were then used as a template to express the scFv in a cell free system. Affinity KD (M) values of mutant scFvs binding to BCMA antigen. Experiment was run in Biacore 4000. The dotted line indicates the binding of the parental F6G clone. KD below the dotted line means improvement in affinity. […] Individual Biacore sensorgrams for E to Y substitution in position 49 of CDRL2 are shown (FIG. 9C).

Molecule | % of cells in the CAR+ gate (BCMA-Fc antigen [1]) | % of cells in the CAR+ gate (BCMA-Fc antigen [2]) | % of cells in the CAR+ gate (BCMA-Fc antigen [3]) | % of cells in the CAR+ gate (BCMA-Fc antigen [4]) | binding result (BCMA antigen)
bb2121 CAR on iNKT cells (clinical benchmark) | 15.9% | 36.2% | 95.5% | 94.1% | –
B1 | 20.7% | 20.9% | 31.4% | 93.1% | –
B2 | – | – | – | – | binds
B3 | – | – | – | – | binds
